Source: patent US20080104734A1 (published 2008)

Target: SSPG1d peptide ([…])
Experiment: ELISA

B1: polyhistidine tagged scFv-SSPG1d-peptide (scFv)
scFv: MDIVLTQSPAIMSASPGEKVTMTCSASSSVSYMHWYQQKSSTSPKLWIYDTSKLASGVPGRFSGSGSGNSYSLTISSMEAEDVATYYCFQGSGYPLTFGAGTKLEIKRGAGGSGGGGSGGGGSGGGGSQVQLQQSGAELVRPGSSVKISCKASGYAFSNYWMNWVKQRPGQGLEWIGQIYPGYGDAKYNGKFKGKATLTADISSSTAYMQLSSLTSEDSAVYFCARSSYEANWGQGTLVTVSALEHHHHHH
Kd: 26.7 nM
